Measured values: paper PMC11446282

T1: B55α (Homo sapiens, UniProt P63151)
T1 construct: His; made in house; host or cells: HEK293 cells
T1 sequence (P63151 1-447): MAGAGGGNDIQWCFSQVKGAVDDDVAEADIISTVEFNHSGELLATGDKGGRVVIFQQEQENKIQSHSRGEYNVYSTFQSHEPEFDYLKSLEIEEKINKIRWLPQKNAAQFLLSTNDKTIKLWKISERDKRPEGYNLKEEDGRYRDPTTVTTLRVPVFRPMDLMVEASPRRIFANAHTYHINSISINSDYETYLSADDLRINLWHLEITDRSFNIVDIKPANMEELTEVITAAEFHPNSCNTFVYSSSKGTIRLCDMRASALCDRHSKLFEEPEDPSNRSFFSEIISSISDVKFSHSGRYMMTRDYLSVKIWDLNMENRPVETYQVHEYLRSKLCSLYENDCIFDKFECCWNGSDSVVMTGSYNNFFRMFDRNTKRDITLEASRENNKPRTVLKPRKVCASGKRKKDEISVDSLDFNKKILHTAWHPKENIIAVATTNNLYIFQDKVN


Target: T1, B55α
Experiment: Surface plasmon resonance with captured Twin-Strep B55α
Type: binding
Settings: same SPR approach as for B55i; fig. S15

Row | binding to B55α, affinity range | Molecule
1 | low micromolar | Arpp19: full-length Arpp19 protein (S62E in the SPR method) (protein, UniProt P56211 1-112, looked up, variant S62E, full-length) MSAEVPEAASAEEQKEMEDKVTSPEKAEEAKLKARYPHLGQKPGGSDFLRKRLQKGQKYFDEGDYNMAKAKMKNKQLPTAAPDKTEVTGDHIPTPQDLPQRKPSLVASKLAG
2 | low micromolar | PME1: full-length PME1 protein expressed in BL21(DE3) (protein) MSALEKSMHLGRLPSRPPLPGSGGSQSGAKMRMGPGRKRDFSPVPWSQYFESMEDVEVENETGKDTFRVYKSGSEGPVLLLLHGGGHSALSWAVFTAAIISRVQCRIVALDLRSHGETKVKNPEDLSAETMAKDVGNVVEAMYGDLPPPIMLIGHSMGGAIAVHTASSNLVPSLLGLCMIDVVEGTAMDALNSMQNFLRGRPKTFKSLENAIEWSVKSGQIRNLESARVSMVGQVKQCEGITSPEGSKSIVEGIIEEEEEDEEGSESISKRKKEDDMETKKDHPYTWRIELAKTEKYWDGWFRGLSNLFLSCPIPKLLLLAGVDRLDKDLTIGQMQGKFQMQVLPQCGHAVHEDAPDKVAEAVATFLIRHRFAEPIGGFQCVFPGC
